Experimental data as given in the supplement of paper PMC12764529.
± gives the half width of the 95% confidence interval.

assay: folding stability dG unfold (combined trypsin and chymotrypsin); higher = more stable
Outline: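 Digests were run with trypsin and chymotrypsin at 11 concentrations in threefold dilutions, plus a no-protease condition, on designed mini-proteins in a PA-tagged cDNA display construct. The mini-proteins were under 80 residues, had no cysteine, and were kept only when AlphaFold2 dimer inter-PAE was above 15. After sequencing, Bayesian fitting of the counts gave K50, from which unfolding free energy was derived against a sequence-predicted unfolded-state K50 and a shared folded-state K50, per protease or combined.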

| Sequence | folding stability dG unfold [kcal/mol] |
| --- | --- |
| SAGGKKKKREIEIQIPVPDEEMKKNGMDPSEFAEELAKELQSLLPPGFEDIDLDVEPHPNGWPRIKIESAGG [r13_271_TrROS] | -0.724 ± 0.3 |
| SAGGGSMYDPETGTLRDENGNFFRTEEKKIPEVVIELPIELPDNTTLVIPVKFRTEEEAEKAVEELLSAGGS [r8_440_JUSTAS] | -0.191 ± 0.33 |
| SAGSETVLKTTTEPRTEPDSEVETTTEVYPDGKRITRTTTTYPNPGEGNPATPVTTTTTTVTELPPNELSAG [r5_224_JUSTAS] | < -1 |
| SAGMITRTITTVDPVDPALVAAISPDLVFPDGSTVSRDGDRLVITTPVTLALPPSPDPAGQLVLPTAASAGG [r19_148_JUSTAS] | -0.00544 ± 0.17 |
| SAGGSAGGSAGGRIRLPGWEIEDVKVYETGDKPYYTITYKNPNGKPKKMLMPADDLDDFSAGGSAGGSAGGS [r10_645_TrROS] | -0.618 ± 0.52 |
| SAGGAPVHLDTTATTIEPLPTGGPVLRVETRFPDGSTRTGDFASREELLARLEASPDAATIRLAAVASAGGS [r16_757_JUSTAS] | 0.203 ± 0.096 |
| SAGSIQVSESALAPGYSLYTITIPYQSIEDAKKLVEEIVSKRFSVPAEIIETKVDPNTGVVTFTVKVPPSAG [r5_810_JUSTAS] | 5.32 ± 0.15 |
| SAGGSAGGSAGGGPNIRTVTETTVEPTPDSVVTTRPVYYVDPSGTVLGSETTTTVDPNTTSAGGSAGGSAGG [r7_812_JUSTAS] | -0.26 ± 0.13 |
| SAGGSAGGSAGGPRVGVVRELPDDSRVALLEIEETLTSPGPDGTPRSRPFRAVFVVPLGSAGGSAGGSAGGS [r10_718_TrMRF] | -0.16 ± 0.18 |
| SAGGSAGGSATLTVEVLEEVVEPVPDPSLTPVRLLVRDPANGELREAVVIRDPRRGALRLESAGGSAGGSAG [r3_1_JUSTAS] | -0.488 ± 0.22 |
| SAGGSAGGSAGGMVKTTTQVSIDPNSDYRYTTTTTTVVDANGKPLATQTTLTVTKLAGTSSAGGSAGGSAGG [r7_616_JUSTAS] | -0.516 ± 0.42 |
| SAGGMEEIRELLREGKIDEVVERLKELGYEDVKITPIPDKPVVKIEVVRYDPVTGKPTKFTLTIPLEPSAGG [r13_359_TrMRF] | 5.67 ± 0.32 |
| SMSIKRARLRPEEIEAEIAALEAQGLRVKREPLEVTPVEVPLKLPDGTPRRVEVVEVVFRLELTPLDQPPSA [r9_991_JUSTAS] | < -1 |
| SAGGSAGGSAGGPMRLVRIPLDDGKIKVVPIPPGEAIPFENDNGEIYFMVTDDKIEIMPSAGGSAGGSAGGS [r10_817_TrROS] | 0.0436 ± 0.15 |
| SAGGSDPVSVSTEGGNTYVTVGDTPVLRLSKGKPEPPVLVTLPNGEVIEMPRSEALARDPSTIEFTPGSAGG [r13_802_JUSTAS] | -0.118 ± 0.12 |
| SAGGSAMPSPITVTTFPGGTARLVEFPDGSTAVVEIVEEGPERVLVTTTTPPDGVPTTSVVPAAELSAGGSA [r15_941_JUSTAS] | -0.537 ± 0.21 |
| SAKVHIPFPPGMPPKQMRNMVKNALREQQNNGKEPDKITIHMPPDQRPIKDWLKEAGLPPDNVKWEPWPSAG [r14_589_TrROS] | < -1 |
| SAGGSAMKTSLSRSTSTDPSDPNVTYKTTTTFLPDNTVLTNTTTTTRVGSSDVTTTTTTTTPIPAASAGGSA [r15_553_JUSTAS] | 0.135 ± 0.18 |
| SAGGSAGGSAGGNDPNGQEKEIPIDPGQRADEIAEEFKDEFNPDHVEIEASEEGYAEVRVSAGGSAGGSAGG [r7_273_TrROS] | 0.348 ± 0.079 |
| SAGGSAGGSAGGSAVTSDGTEVEPDQLVEEATLTPPDGEPVRLRVYAVPDSDEVVTEAGSAGGSAGGSAGGS [r4_13_TrMRF] | < -1 |
| SAGGSAGGSAGGYDPNDKPVVEVPIELPPNDKKNPDRMKENAEEIANPLQEKGKPDRIVSAGGSAGGSAGGS [r10_723_TrROS] | 0.475 ± 0.24 |
| SAGGSAGGSAGGSMKTITFTDPAEIAAAIEEAEKEGVEEVVLLTPEGKTRVIPKGVPLPSAGGSAGGSAGGS [r4_260_JUSTAS] | -0.00846 ± 0.37 |
| SAGGSASPELQKRIKDALQEENPDYPVTVDEVDPKNNTIMITFNSPWHQKRIEKALKEDGIKITIYSAGGSA [r15_196_TrROS] | -0.618 ± 0.27 |
| PPVGPDAPVTPTTTPTPSGKTVTTTDRPLRREVTTTDPSTGTYTVTLTETDAAGRVLATRTETLSPEEVAAS [r1_380_JUSTAS] | -0.541 ± 0.31 |
